Measurements reported in US8778888B2, “Cystine knot peptides binding to alpha IIb beta 3 integrins and methods of use” (The Board of Trustees of the Leland Stanford Junior …, priority 2009, dated 2014).

What was measured:
αvβ3 integrin = target: T1, αvβ3 integrin (Homo sapiens, UniProt P05106+P06756); assay: Yeast-displayed AgTx constructs binding to αvβ3 integrin; details: 10 nM αvβ3, the lowest concentration tested
T1 construct: purchased Millipore
Protocol: The yeast library was grown in selective media (SD-CAA, 20 g/L glucose, 6.7 g/L yeast nitrogen base without amino acids, 5.4 g/L Nα2HPO4, 8.6 g/L NaH2PO4.H2O, and 5 g/L Bacto casamino acids) and induced in selective media containing galactose (SG-CAA). For library screening, 5 to 25×10^6 yeast (depending on the sort round) were labeled with detergent-solubilized integrin and a 1:250 dilution of chicken anti-c-myc IgY (Invitrogen) in integrin binding buffer (IBB, 20 mM Tris pH 7.5 with 1 mM MgCl2, 1 mM MnCl2, 2 mM CaCl2, 100 mM NaCl, and 1 mg/mL bovine serum albumin) at room temperature for 2 h. The yeast cells were centrifuged at 4° C. and the supernatant was removed by aspiration. The yeast were then resuspended in ice-cold BPBS (PBS containing 1 mg/mL bovine serum albumen) containing a 1:100 dilution of phycoerythrin-conjugated goat anti-chicken IgY secondary antibody (Santa Cruz Biotechnology) and a 1:25 dilution of either fluorescein-conjugated anti-αvβ3 antibody (Biolegend) or fluorescein-conjugated anti-αIIb antibody (Biolegend), as appropriate. After incubation for 20 min on ice, the yeast were centrifuged, aspirated, and stored as pellets on ice until cell sorting. Yeast library screening was performed using a Becton Dickinson FACS Vantage SE instrument (Stanford FACS Core Facility) and CellQuest software. […]

αIIbβ3 integrin = αIIbβ3 integrin (Homo sapiens, UniProt P05106+P08514); details: clinical use; cited from earlier work
[1] = tested on: ADP-induced platelet aggregation; details: clinical use; cited from earlier work
[2] = cited from earlier work
[3] = tested on: αvβ3 integrin and the leukocyte integrin Mac-1; details: cited from earlier work

T1 sequence (P06756 31-889 limits assumed): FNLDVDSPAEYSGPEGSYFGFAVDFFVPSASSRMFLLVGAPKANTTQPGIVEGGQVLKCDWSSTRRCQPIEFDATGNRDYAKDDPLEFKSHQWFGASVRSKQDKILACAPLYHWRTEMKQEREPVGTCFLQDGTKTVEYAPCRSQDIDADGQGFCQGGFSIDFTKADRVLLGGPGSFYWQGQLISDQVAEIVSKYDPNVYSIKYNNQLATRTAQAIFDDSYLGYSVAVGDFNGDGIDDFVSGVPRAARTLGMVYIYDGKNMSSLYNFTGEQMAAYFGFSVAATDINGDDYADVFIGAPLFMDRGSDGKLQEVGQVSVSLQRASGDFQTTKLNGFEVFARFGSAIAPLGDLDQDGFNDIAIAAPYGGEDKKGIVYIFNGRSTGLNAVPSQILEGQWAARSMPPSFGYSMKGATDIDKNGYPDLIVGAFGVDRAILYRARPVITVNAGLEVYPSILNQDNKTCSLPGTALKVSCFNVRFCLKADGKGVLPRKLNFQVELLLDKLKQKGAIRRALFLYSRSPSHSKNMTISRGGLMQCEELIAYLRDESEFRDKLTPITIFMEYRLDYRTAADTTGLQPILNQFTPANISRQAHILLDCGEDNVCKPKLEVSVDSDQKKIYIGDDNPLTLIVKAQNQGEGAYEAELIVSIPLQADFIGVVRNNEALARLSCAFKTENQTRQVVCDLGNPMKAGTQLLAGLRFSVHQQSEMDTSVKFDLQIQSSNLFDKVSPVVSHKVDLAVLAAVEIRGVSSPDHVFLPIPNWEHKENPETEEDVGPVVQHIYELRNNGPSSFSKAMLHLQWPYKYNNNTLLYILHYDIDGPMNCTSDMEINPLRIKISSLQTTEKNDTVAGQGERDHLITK
T1 sequence (P06756 891-1048 partner limits assumed): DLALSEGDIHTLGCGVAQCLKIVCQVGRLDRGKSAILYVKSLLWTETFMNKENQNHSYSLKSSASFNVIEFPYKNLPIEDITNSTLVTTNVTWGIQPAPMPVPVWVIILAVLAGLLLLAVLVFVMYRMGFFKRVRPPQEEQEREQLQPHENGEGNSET
T1 sequence (P05106 27-788): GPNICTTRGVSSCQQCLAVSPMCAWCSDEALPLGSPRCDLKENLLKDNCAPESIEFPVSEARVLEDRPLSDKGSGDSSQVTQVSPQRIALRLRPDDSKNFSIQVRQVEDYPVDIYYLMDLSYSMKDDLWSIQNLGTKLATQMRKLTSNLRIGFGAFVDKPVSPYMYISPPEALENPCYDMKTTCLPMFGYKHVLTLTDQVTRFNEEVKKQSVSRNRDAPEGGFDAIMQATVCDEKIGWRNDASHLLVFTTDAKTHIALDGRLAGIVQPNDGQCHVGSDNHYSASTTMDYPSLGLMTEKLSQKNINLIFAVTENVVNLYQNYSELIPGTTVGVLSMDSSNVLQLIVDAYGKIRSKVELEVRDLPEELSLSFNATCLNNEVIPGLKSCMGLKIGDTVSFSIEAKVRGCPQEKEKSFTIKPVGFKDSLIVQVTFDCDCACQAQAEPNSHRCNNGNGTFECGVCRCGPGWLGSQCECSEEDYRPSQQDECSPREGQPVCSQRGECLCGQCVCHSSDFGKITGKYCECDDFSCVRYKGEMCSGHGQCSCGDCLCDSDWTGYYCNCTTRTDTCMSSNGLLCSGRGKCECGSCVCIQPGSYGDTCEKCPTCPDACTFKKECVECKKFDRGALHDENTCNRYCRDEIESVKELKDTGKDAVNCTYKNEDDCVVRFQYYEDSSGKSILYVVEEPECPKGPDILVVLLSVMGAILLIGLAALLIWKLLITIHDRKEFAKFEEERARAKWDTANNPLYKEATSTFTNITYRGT

Substance	binding to αvβ3 integrin on yeast surface (αvβ3 integrin)	blockage of αIIbβ3 integrin (αIIbβ3 integrin)	inhibition of ADP-induced platelet aggregation [1]	bleeding in patients ([2]; clinical use)	persistence of the antibody in the patient ([2]; in spite of a 12-hour infusion)	binding to other integrins [3]
GCIAEDYGRCTWGGTPCCRGRGCICSGRGDNDLVCECT [AgTx2-7A, AgRP 7A loop 4 grafted into AgTx consensus 2]	Binding was observed at 10 nM αvβ3	–	–	–	–	–
GCIAEDYGRCTWGGTPCCRGRPCRCSGRGDNDLVCECT [AgTX-1-7A, AgRP 7A loop 4 grafted into AgTx consensus 1]	Binding was observed at 10 nM αvβ3	–	–	–	–	–
Abciximab: αIIbβ3 integrin-specific antibody fragment c7E3	–	> 90%	> 80%	bleeding issues in many patients	over two-thirds of the antibody persists in the patient for several weeks	also binds to αvβ3 integrin and the leukocyte integrin Mac-1
